Measurements published in US20130231277A1 (NEW YORK UNIVERSITY, published 2013).
Each block holds one binder with its values, some of them ahead of it.

Assays:
[1] = biological target: T1, ectodomain of murine βKlotho (F53 to L995 of SEQ ID NO: 218) with a C-terminal FLAG tag (murine, UniProt Q99N32 53-995); assay: SPR competition; FGF19 or FGF21 immobilized, fixed βKlotho ectodomain mixed with increasing peptide (FIGS. 5B, 5F)
T1 construct: Expressed in HEK293 cells and purified from culture media; also called βKlotho ectodomain; not shown: C-terminal FLAG tag
T1 sequence: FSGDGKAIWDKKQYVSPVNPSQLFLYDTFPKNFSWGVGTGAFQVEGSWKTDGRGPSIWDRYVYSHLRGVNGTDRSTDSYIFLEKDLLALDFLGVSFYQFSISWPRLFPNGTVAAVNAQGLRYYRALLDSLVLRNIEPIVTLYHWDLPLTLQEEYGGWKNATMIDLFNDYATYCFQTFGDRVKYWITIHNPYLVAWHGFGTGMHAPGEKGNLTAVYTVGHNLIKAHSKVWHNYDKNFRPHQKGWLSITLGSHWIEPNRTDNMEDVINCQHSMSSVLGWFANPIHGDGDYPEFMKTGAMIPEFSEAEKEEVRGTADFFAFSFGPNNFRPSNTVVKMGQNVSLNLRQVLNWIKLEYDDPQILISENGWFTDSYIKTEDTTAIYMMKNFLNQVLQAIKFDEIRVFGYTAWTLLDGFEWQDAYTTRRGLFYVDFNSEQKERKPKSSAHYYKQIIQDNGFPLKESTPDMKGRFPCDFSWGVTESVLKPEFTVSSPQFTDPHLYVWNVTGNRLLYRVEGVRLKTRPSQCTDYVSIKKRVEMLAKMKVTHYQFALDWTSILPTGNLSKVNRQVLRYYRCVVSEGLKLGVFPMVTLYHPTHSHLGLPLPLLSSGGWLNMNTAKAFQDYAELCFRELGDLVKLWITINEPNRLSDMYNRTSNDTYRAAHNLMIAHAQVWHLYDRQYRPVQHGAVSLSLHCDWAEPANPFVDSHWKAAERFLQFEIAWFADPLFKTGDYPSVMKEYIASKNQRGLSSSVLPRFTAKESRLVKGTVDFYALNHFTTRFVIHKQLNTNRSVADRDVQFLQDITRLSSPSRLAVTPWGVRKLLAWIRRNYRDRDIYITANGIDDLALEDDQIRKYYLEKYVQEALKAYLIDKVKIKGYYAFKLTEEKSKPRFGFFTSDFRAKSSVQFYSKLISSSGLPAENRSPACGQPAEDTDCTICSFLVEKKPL
Description: Residues that are identical between FGF19 and FGF21 are shaded gray. Note that 40% of these residues map to the most C-terminal sequence. […] FGF19 was immobilized on a biosensor chip, and mixtures of a fixed concentration of βKlotho ectodomain with increasing concentrations of FGF19^C-tail were passed over the chip. […] Mixtures of a fixed concentration of βKlotho ectodomain with increasing concentrations of FGF21^C-tail were passed over a biosensor chip onto which FGF19 had been immobilized. […] FGF21 was immobilized on a biosensor chip, and mixtures of a fixed concentration of βKlotho ectodomain with increasing concentrations of FGF21^C-tail were passed over the chip. […] Mixtures of a fixed concentration of βKlotho ectodomain with increasing concentrations of FGF19^C-tail were passed over a biosensor chip onto which FGF21 had been immobilized. […] The data shown in FIGS. 5B-G are representative of two to three independent experiments.

[2] = biological target: T2, 1:1 binary complex of FGFR1c ligand-binding domain and βKlotho ectodomain (human; murine, UniProt P11362 142-365; Q99N32 53-995); assay: SPR competition; FGF21 immobilized, complex mixed with the mutant at a molar ratio of 1:2 or 1:6 (FIG. 14B)
T2 construct: also called FGFR1c-βKlotho complex; FGFR1c-βKlotho; not shown: C-terminal FLAG tag
T2 sequence 1: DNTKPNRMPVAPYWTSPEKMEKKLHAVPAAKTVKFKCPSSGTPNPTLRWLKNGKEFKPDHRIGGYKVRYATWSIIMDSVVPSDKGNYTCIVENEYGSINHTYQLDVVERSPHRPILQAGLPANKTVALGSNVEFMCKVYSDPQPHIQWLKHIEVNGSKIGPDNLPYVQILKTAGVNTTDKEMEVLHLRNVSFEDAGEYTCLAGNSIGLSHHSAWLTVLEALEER
T2 sequence 2: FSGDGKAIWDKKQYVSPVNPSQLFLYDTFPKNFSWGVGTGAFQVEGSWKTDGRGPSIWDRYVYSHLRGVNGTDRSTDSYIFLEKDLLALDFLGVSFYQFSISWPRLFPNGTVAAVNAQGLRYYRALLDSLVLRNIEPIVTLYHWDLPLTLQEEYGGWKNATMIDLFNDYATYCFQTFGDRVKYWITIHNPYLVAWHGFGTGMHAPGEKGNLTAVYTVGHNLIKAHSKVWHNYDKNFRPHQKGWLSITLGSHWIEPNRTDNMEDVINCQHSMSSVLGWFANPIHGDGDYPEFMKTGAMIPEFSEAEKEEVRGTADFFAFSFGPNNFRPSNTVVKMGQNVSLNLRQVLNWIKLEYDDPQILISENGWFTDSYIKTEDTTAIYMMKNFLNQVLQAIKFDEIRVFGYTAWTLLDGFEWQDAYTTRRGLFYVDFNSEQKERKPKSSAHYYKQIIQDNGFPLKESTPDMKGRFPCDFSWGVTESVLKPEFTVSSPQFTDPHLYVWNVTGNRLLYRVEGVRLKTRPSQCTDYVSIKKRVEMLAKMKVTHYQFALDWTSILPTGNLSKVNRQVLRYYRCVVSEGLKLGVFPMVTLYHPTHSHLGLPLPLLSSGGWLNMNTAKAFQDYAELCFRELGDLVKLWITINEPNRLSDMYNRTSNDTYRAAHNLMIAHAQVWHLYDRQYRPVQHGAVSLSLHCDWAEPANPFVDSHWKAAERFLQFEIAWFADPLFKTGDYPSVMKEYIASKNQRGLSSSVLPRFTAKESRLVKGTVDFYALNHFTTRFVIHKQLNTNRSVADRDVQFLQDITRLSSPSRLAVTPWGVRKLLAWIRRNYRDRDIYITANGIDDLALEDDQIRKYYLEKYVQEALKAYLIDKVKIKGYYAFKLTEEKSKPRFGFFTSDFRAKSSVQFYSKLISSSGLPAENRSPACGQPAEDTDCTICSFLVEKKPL
Description: Increasing concentrations of FGF21 were mixed with a fixed concentration of FGFR1c-βKlotho complex, and the mixtures were passed over a FGF21 chip. […] In the experiments shown in FIGS. 14B-14C, FGFR1c-βKlotho complex was mixed with either mutant FGF21 or wild-type FGF21 at a molar ratio of 1:2 or 1:6, and the mixtures were injected over a FGF21 chip. The data shown in FIGS. 14A-14C are representative of two to three independent experiments.
(§1) SPR experiments were performed on a Biacore 2000 instrument (Biacore AB), and all the protein-protein and protein-peptide interactions were studied at 25° C. in HBS-EP buffer (10 mM HEPES-NaOH, pH 7.4, 150 mM NaCl, 3 mM EDTA, 0.005% (v/v) polysorbate 20). Proteins were immobilized by amine coupling on flow channels of research grade CM5 chips (Biacore AB). Proteins were injected over a CM5 chip at a flow rate of 50 μl min⁻¹, and at the end of each protein injection (180 s), HBS-EP buffer (50 μl min⁻¹) was flowed over the chip to monitor dissociation for 180 s. In experiments where βKlotho binding to FGFR was analyzed, the chip surface was then regenerated by injecting 50 μl of 2.0 M NaCl in 10 mM sodium/potassium phosphate, pH 6.5. In experiments where α/βKlotho binding to FGF19/21/23 or binding of the FGFR1c-βKlotho complex to FGF21 was studied, 2.0 M NaCl in 10 mM sodium acetate, pH 4.5 was used for chip regeneration.

[3] = biological target: T2, 1:1 binary complex of FGFR1c …; assay: SPR competition; FGF21 immobilized, FGFR1c-βKlotho complex mixed with the chimera (FIGS. 15E, 15F)
Description: In the experiments shown in FIGS. 15A-15C, increasing concentrations of either an FGF21/FGF19 chimera or wild-type FGF21 were mixed with a fixed concentration of FGFR1c-βKlotho complex, and the mixtures were passed over a FGF21 chip. […] The data shown in FIGS. 15A-15C are representative of two to three independent experiments. Included in FIGS. 15E-15F are SPR sensorgrams obtained from injecting mixtures of the FGF21²⁹⁻¹⁹⁰/FGF19¹⁹⁷⁻²¹⁶ chimera with the FGFR1c-βKlotho complex over a FGF21 chip.
SPR experiments were performed on a Biacore 2000 instrument (Biacore AB), and all the protein-protein and protein-peptide interactions were studied at 25° C. in HBS-EP buffer (10 mM HEPES-NaOH, pH 7.4, 150 mM NaCl, 3 mM EDTA, 0.005% (v/v) polysorbate 20). Proteins were immobilized by amine coupling on flow channels of research grade CM5 chips (Biacore AB). Proteins were injected over a CM5 chip at a flow rate of 50 μl min⁻¹, and at the end of each protein injection (180 s), HBS-EP buffer (50 μl min⁻¹) was flowed over the chip to monitor dissociation for 180 s.

[4] = biological target: T1, ectodomain of murine βKlotho (F53 to …); assay: SPR competition; FGF21 immobilized, fixed βKlotho ectodomain mixed with increasing chimera (FIGS. 7B, 7C)
Description: Increasing concentrations of FGF21 were mixed with a fixed concentration of βKlotho ectodomain, and the mixtures were passed over a FGF21 chip. […] Increasing concentrations of FGF21²⁹⁻¹⁹⁰/FGF19¹⁹⁷⁻²¹⁶ chimera were mixed with a fixed concentration of βKlotho ectodomain, and the mixtures were passed over a FGF21 chip. […] The figure was created from the data shown in FIGS. 7A-B, which are representative of two independent experiments.
as §1, with “regeneration. […]” for “regeneration.”

[5] = biological target: FGFR1c endogenously expressed by HEK293 cells transiently transfected with murine βKlotho (UniProt P11362 22-822); assay: cell-based or functional assay
[6] = biological target: T1, ectodomain of murine βKlotho (F53 to …); assay: size-exclusion chromatography of the binary complex (FIG. 1A)
Description: Size-exclusion chromatography experiments were performed on a HiLoad™ 16/60 Superdex™ 200 prep grade column (GE Healthcare) mounted on an ÄKTApurifier (GE Healthcare). […] Sample injection volume was 0.9 to 2.0 ml, and the flow rate was 1.0 ml min⁻¹. Protein retention times were determined by absorbance at 280 nm. The column was calibrated with ferritin (440 kDa), immunoglobulin G (150 kDa), albumin (69.3 kDa), ovalbumin (44.3 kDa), carbonic anhydrase (28.8 kDa), and ribonuclease A (13.7 kDa). The void volume was determined using blue dextran 2,000, and the column volume was measured with acetone. To examine ternary complex formation between FGF21, FGFR1c, and βKlotho, 2.72 μmol of the 1:1 binary complex of FGFR1c ligand-binding domain and βKlotho ectodomain were mixed with 9.25 μmol of FGF21, and the mixture was applied to the size-exclusion column. The retention time of the FGFR1c-βKlotho complex alone served as a reference point. To examine ternary complex formation between FGF19, FGFR4, and βKlotho, 2.46 μmol of the 1:1 binary complex of FGFR4 ligand-binding domain and βKlotho ectodomain were mixed with 8.51 μmol of FGF19, and the mixture was applied to the size-exclusion column. The retention time of the FGFR4-βKlotho complex alone served as a reference point. […]

FGFR1c endogenously expressed by HEK293 cells transiently transfected with murine βKlotho, sequence (P11362 22-822): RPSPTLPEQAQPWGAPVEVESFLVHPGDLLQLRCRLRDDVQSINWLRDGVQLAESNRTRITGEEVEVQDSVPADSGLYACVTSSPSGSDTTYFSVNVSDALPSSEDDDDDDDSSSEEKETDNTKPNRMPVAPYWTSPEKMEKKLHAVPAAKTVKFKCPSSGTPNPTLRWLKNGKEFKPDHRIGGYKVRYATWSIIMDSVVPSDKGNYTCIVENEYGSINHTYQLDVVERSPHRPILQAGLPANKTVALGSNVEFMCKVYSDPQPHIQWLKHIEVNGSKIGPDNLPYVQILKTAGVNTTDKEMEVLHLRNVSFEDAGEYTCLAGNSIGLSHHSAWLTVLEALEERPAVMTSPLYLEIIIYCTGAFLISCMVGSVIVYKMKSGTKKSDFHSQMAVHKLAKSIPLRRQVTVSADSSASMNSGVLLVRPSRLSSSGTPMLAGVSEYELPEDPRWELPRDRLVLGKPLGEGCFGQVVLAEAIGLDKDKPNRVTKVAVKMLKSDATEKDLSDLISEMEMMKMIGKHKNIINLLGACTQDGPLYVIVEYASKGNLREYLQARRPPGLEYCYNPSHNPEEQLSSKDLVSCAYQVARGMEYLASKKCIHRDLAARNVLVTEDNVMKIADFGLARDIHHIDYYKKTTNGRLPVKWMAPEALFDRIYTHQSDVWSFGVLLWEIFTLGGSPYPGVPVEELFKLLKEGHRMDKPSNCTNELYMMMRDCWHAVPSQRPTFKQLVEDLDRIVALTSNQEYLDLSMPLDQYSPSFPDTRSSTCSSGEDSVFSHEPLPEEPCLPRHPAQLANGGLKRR

- binding result [1]: binds
B1: C-terminal tail peptide of human FGF19 (M171 to K216 of SEQ ID NO: 1), fused to a 50 residue-long N-terminal tag including a hexahistidine tag (peptide)
peptide: MVPEEPEDLRGHLESDMFSSPLETDSMDPFGLVTGLEAVRSPSFEK
notes: Expressed in E. coli and purified from the soluble lysate fraction; also called FGF19^C-tail; FGF19 C-terminal tail peptide; not shown: 50 residue-long N-terminal tag including a hexahistidine tag

- binding result [3]: binds
- binding result [4]: binds
B3: FGF21^29-190/FGF19^197-216 chimera (H29 to S190 of human FGF21 and M197 to K216 of human FGF19; SEQ ID NO: 206) (ligand)
chain: HPIPDSSPLLQFGGQVRQRYLYTDDAQQTEAHLEIREDGTVGGAADQSPESLLQLKALKPGVIQILGVKTSRFLCQRPDGALYGSLHFDPEACSFRELLLEDGYNVYQSEAHGLPLHLPGNKSPHRDPAPRGPARFLPLPGLPPALPEPPGILAPQPPDVGSMDPFGLVTGLEAVRSPSFEK
notes: Chimera of human FGF21 and human FGF19, purified from E. coli inclusion bodies; also called FGF21^C-tail variant 19-45

Continued, binder first:

B2: Y207F single mutant of human FGF21 (SEQ ID NO: 232) (ligand)
chain: HPIPDSSPLLQFGGQVRQRYLYTDDAQQTEAHLEIREDGTVGGAADQSPESLLQLKALKPGVIQILGVKTSRFLCQRPDGALYGSLHFDPEACSFRELLLEDGYNVYQSEAHGLPLHLPGNKSPHRDPAPRGPARFLPLPGLPPALPEPPGILAPQPPDVGSSDPLSMVGPSQGRSPSFAS
notes: It was purified by the same protocol as the wild-type protein, which was H29 to S209; also called Y207F mutant of FGF21; single mutant FGF21
- binding result [2]: binds

B4: FGF21^29-167/FGF19^169-216 chimera (H29 to L167 of human FGF21 and L169 to K216 of human FGF19; SEQ ID NO: 207) (ligand)
chain: HPIPDSSPLLQFGGQVRQRYLYTDDAQQTEAHLEIREDGTVGGAADQSPESLLQLKALKPGVIQILGVKTSRFLCQRPDGALYGSLHFDPEACSFRELLLEDGYNVYQSEAHGLPLHLPGNKSPHRDPAPRGPARFLPLLPMVPEEPEDLRGHLESDMFSSPLETDSMDPFGLVTGLEAVRSPSFEK
- Induction of Egr1 protein expression (immunoblot, HEK293 cells co-expressing FGFR1c and βKlotho) [5]: 10 fold lower concentration than native FGF21

B5: ligand-binding domain of human FGFR1c (D142 to R365 of SEQ ID NO: 221) (receptor)
chain: DNTKPNRMPVAPYWTSPEKMEKKLHAVPAAKTVKFKCPSSGTPNPTLRWLKNGKEFKPDHRIGGYKVRYATWSIIMDSVVPSDKGNYTCIVENEYGSINHTYQLDVVERSPHRPILQAGLPANKTVALGSNVEFMCKVYSDPQPHIQWLKHIEVNGSKIGPDNLPYVQILKTAGVNTTDKEMEVLHLRNVSFEDAGEYTCLAGNSIGLSHHSAWLTVLEALEER
- binding result [6]: binds
